In US20110268660A1, “METHOD FOR DETECTING DYSPLASIA” (priority 2008, published 2011):

Experiments:
[1] = target: human recombinant EGFR/Fc chimera (R&D systems, cat. no 344-ER) (human) (UniProt P00533); assay: fluorescence polarization, 5 nM dye-labelled ligand, EGFR/Fc titrated 0-258 nM, in solution
[2] = target: T1, human EGFR (Homo sapiens, UniProt P00533); assay: Fluorescence polarization binding assay; settings: dye-labelled ligand 5 nM; human recombinant EGFR/Fc chimera 0-258 nM; 10 min at 30° C.; triplicates; read-out: Kd value towards human EGFR
T1 construct: purchased R&D systems 344-ER
Method: The fluorescence polarization binding measurements were performed as triplicates in 384-well microplates in a volume of 40 μL in binding buffer (PBS, 0.01% Tween-20, pH 7.5) using a Tecan Safire fluorescence polarisation plate reader at ex646/em678 nm. The concentration of dye-labelled ligand was held constant (5 nM) and the concentrations of the target (human recombinant EGFR/Fc chimera from R&D systems, cat. no 344-ER) was varied from 0-258 nM. Binding mixtures were equilibrated in the microplate for 10 min at 30° C.
Data fitting was performed via nonlinear regression using SigmaPlot software (version 10) to obtain the Kd value.

Kd [1] [nM]	Kd [2] [nM]	Substance
4.1		anti-EGFR Affibody His6-ZEGFR:1907-Cys(Cy5**) (Compound 14) (designed binder)
	4.1	anti-EGFR Affibody His6-ZEGFR:1907-Cys(Cy5**) [Compound 14]
